According to patent publication US20210261665A1 (TAYU HUAXIA BIOTECH MEDICAL GROUP, published 2021):
Numbering of substitutions follows the chain as printed. In names and notes the source's numbering stands.

T1: mPD-1 protein (ELISA coat) (mouse, UniProt Q02242 25-167, limits assumed)
T1 sequence (looked up): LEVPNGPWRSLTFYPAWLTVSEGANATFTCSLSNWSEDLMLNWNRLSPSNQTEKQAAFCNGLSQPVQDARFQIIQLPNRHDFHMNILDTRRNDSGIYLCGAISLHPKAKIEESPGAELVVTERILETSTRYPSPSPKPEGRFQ

B1: TY101-01-09 (antibody, V domains shown)
VH: EVQLVESGGGLVQPGGSLRLSCAASGFTFSSYTMSWVRQAPGKGLEWVSYISHGGGDTYYADSVKGRFTISRDNSKNTLYLQMNSLRAEDTAVYYCARHSGYERGYYYVMDYWGQGTLVTVSS
VL: DIQLTQSPDSLSVSLGERATINCKASESVDYYGFSFLNWFQQKPGQPPKLLIYAASNRQSGVPDRFSGSGSGTDFTLTISSLQAEDVAVYFCQQSKEVPWTFGQGTKLEIKR
notes: Compared with isotype control hIgG4; also called TY101 clone TY101-01-09
B2: TY101-04-T3-05 (antibody, V domains shown)
VH: B1 VH
VL: B1 VL
notes: also called TY101 clone TY101-04-T3-05
B3: TY101-4G1 (antibody, V domains shown)
VH: B1 VH
VL: B1 VL
notes: also called TY101 clone TY101-4G1
B4: Variant 2 (antibody, V domains shown)
VH: B1 VH
VL: B1 VL with Q3V, L4M, S12A, Q59E, F91Y
notes: Humanized; VH variant a, VK variant b; Constant regions not spelled out; chimeric parent has human IgG4-S228P and human kappa; also called mutant combination 2
B5: Variant 5 (antibody, V domains shown)
VH: B1 VH with A61P
VL: B1 VL with Q3V, L4M, S12A, Q59E, F91Y
notes: Humanized; VH variant b, VK variant b; Constant regions not spelled out; chimeric parent has human IgG4-S228P and human kappa; also called mutant combination 5
B6: Variant 8 (antibody, V domains shown)
VH: B1 VH with Q3K, V5L, A61P, Q115K, L118T
VL: DIVMTQSPDSLAVSLGERATINCKASESVDYYGFSFLNWFQQKPGQPPKLLIYAASNRESGVPDRFSGSGSGTDFTLTISSLQAEDVAVYYCQQSKEVPWTFGQGTKLEIK
notes: Humanized; VH variant c, VK variant b; Constant regions not spelled out; also called mutant combination 8
B7: Variant 4 (antibody, V domains shown)
VH: B1 VH with A61P
VL: B1 VL with Q3V, L4M, S12A, A25S, Q59E, F91Y
notes: Humanized; VH variant b, VK variant a; Constant regions not spelled out; chimeric parent has human IgG4-S228P and human kappa; also called mutant combination 4
B8: Variant 6 (antibody, V domains shown)
VH: B1 VH with A61P
VL: B1 VL
notes: Humanized; VH variant b, VK variant c; Constant regions not spelled out; chimeric parent has human IgG4-S228P and human kappa; also called mutant combination 6
B9: Variant 7 (antibody, V domains shown)
VH: B1 VH with Q3K, V5L, A61P, Q115K, L118T
VL: B6 VL with A25S
notes: Humanized; VH variant c, VK variant a; Constant regions not spelled out; also called mutant combination 7
B10: Variant 9 (antibody, V domains shown)
VH: B1 VH with Q3K, V5L, A61P, Q115K, L118T
VL: B6 VL with V3Q, M4L, A12S, E59Q, Y91F
notes: Humanized; VH variant c, VK variant c; Constant regions not spelled out; also called mutant combination 9
B11: Variant 1 (antibody, V domains shown)
VH: B1 VH
VL: B1 VL with Q3V, L4M, S12A, A25S, Q59E, F91Y
notes: Humanized; Constant regions not spelled out for the humanized antibodies; the chimeric parent has human IgG4-S228P and human kappa; also called mutant combination 1
B12: chimeric parental antibody (antibody, human IgG4 S228P, kappa, V domains shown)
VH: EVKLVESGGGLVQPGGSLKLSCAASGFTFSSYTMSWIRQTPEKRLEWVAYISHGGGDTYYPDTVKGRFTISRDNAKNTLYLQMSSLKSEDTAMYYCARHSGYERGYYYVMDYWGQGTSVTVSS
VL: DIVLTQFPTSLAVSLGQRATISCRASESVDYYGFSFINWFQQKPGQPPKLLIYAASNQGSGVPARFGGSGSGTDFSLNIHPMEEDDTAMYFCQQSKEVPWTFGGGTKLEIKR
notes: also called chimeric antibody
B13: Murine Ab2 (antibody, mouse IgG1, V domains shown)
VH: QVQLQQSGAELARPGASVKMSCKASGYTFTSYTMHWVKQRPGQGLEWIGYINPTTGYTNYNQKFKDKATLTADKSSSTAYMQLSSLTSEDSAVYYCARDDAYYSGYWGQGTTLTVSS
VL: DIQMTQSPASLSVSVGETVTITCRASENIYSNLAWYRQKQGKSPQLLVYAAKNLADGVPSRFSGSGSGTQYSLKINSLQSEDFGSYYCQHFWGTPWTFGGGTKLEIKR
notes: also called anti-hPD-1 mAb 2

The binders below were run against hPD-1 protein (ELISA coat) (human, UniProt Q15116 25-167, limits assumed) (assay: ELISA against hPD-1 ECD-Fc protein (plate coat)).
Chain of hPD-1 protein (ELISA coat) (Q15116 25-167 limits assumed): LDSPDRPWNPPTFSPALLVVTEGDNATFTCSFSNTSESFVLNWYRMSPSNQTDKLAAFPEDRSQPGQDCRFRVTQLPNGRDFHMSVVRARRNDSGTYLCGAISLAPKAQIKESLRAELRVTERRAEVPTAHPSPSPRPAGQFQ
Experimental: (§1) The bindings of the antibodies to hPD-1 and the cross-reactivity to mPD-1 proteins were tested by ELISA. A serial dilution of test antibodies were added to ELISA plates pre-coated with 1 μg/ml hPD-1 or mPD-1. HRP conjugated goat anti-human IgG or goat anti-mouse IgG antibody was then added, followed by the addition of substrate Tetramethylbenzidine (TMB) and quantification with a SpectraMax Plus 384 Microplate Reader (Molecular Device, LLC., Sunnyvale, Calif.) at 450 nm wavelength.
With B1 the EC50 was 0.13 nM and the “Max OD450” value was 3.01. In the case of B2, the EC50 is reported as 0.14 nM and the “Max OD450” value is reported as 3.03. B3 was tested, and the EC50 was 0.15 nM and the “Max OD450” value was 3.01.

The binders below were run against T1, mPD-1 protein (ELISA coat) (assay: ELISA against mPD-1 ECD-Fc protein (plate coat)).
Experimental: as §1
For B1, the “Max OD450” value was 0.71 and the binding result was “no binding (tested: 100 nM)”. In the case of B2, the “Max OD450” value is reported as 0.92 and the binding result is reported as “no binding (tested: 100 nM)”. In the case of B3, the “Max OD450” value is reported as 1.33 and the binding result is reported as “no binding (tested: 100 nM)”.

These binders were tested against T2, Biotin-hPD-1 (human, UniProt Q15116 25-167, limits assumed, biotin label, site not stated) (assay: competitive ELISA: competitive Ab 15 µg/ml with Biotin-hPD-1; coating Ab TY101-4G1 1 µg/ml).
T2 sequence (Q15116 25-167 limits assumed): as above
Experimental: (§2) A serial dilution of competing antibodies and Biotin-hPD-1 were added to ELISA plates pre-coated with 1 μg/ml a test antibody. HRP conjugated streptavidin was then added, followed by the addition of substrate TMB and quantification with a SpectraMax Plus 384 Microplate Reader at 450 nm wavelength.
For B1, the “Inhibition (%)” value was 95%. In the case of B2, the “Inhibition (%)” value is reported as 95%. In the case of B3, the “Inhibition (%)” value is reported as 95%.

What follows are binders tested against T3, human PD-1 on cells (human, UniProt Q15116 25-288) (assay: cell based RBA (flow cytometry): blocking of Biotin-hPD-L1 binding to CHOK1-hPD-1 cells).
T3 construct: whole, on cells; also called hPD-1; CHO/hPD-1
T3 sequence (Q15116 25-288): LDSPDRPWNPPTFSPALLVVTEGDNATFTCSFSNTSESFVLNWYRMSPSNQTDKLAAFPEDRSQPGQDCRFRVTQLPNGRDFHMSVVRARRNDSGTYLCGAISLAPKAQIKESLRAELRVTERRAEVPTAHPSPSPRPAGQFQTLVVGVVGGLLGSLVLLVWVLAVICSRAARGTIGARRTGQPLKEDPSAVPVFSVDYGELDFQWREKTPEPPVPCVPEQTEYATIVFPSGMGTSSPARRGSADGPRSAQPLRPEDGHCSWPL
Experimental: (§3) The cells were then incubated with Alexa 488 labeled Streptavidin and analyzed using a FACSCanto II.
With B1 the IC50 was 1.15 nM and the Inhibition rate was 99.5%. Binder B2 has an IC50 of 1.3 nM and an Inhibition rate of 99.5%. With B3 the IC50 was 1.47 nM and the Inhibition rate was 99.5%.

What follows are binders tested against T4, Human PD-1 ECD protein (human, UniProt Q15116 25-170) (assay: SPR, Biacore T200, hPD-1 ECD immobilised at the high level (960 RU), antibody as analyte, 1:1 fit; kd and KD printed as '*', no visible dissociation over 1500 s [lower right]).
T4 construct: extracellular domain; also called hPD-1; recombinant hPD-1
T4 sequence (Q15116 25-170): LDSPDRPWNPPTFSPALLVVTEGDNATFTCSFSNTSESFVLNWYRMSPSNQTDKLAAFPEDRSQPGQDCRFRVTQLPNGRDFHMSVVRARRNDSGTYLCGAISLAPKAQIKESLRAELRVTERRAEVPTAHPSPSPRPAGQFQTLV
Experimental: (§4) Human PD-1 ECD protein was immobilized on CMS sensor chip for different length of time to achieve low immobilization level (at 60 RU) in flow cell 3 and high immobilization level (960 RU) in flow cell 4. […] After signals of both the reference (flow cell 1) and the zero concentrations being subtracted from that of samples, binding kinetics was calculated using Biacore T200 evaluation software version 1.0 and a 1:1 binding model for curve fitting.
B2 showed a kon of 210000 M⁻¹ s⁻¹.

Each binder was assayed against T5, hPD-1 mIg fusion protein (human; mouse, UniProt Q15116 25-170) (assay: SPR Biacore T100, hPD-1mIg immobilised by amine coupling, antibody as analyte).
T5 construct: extracellular domain; not shown: CH2-CH3 domain of mouse IgG2a heavy chain (plasmid pmIgG)
T5 sequence (Q15116 25-170): as above
Experimental: Binding affinity and kinetics determination of the humanized antibodies: The binding affinity and kinetics of the humanized PD-1 mAbs interact with hPD-1 protein was assessed with Biacore T100 (GE Healthcare Life Sciences). […] Nine different concentrations were tested for each sample. Detailed binding kinetic parameters (association rate, Ka, dissociation rate, Kd, and affinity constant, KD) can be determined by full kinetic analysis.
In the case of B4, the Kd is reported as 0.363 nM, the koff is reported as 7.64e-05 s⁻¹ and the kon is reported as 210000 M⁻¹ s⁻¹. B5 was tested, and the Kd was 0.329 nM, the koff was 6.94e-05 s⁻¹ and the kon was 211000 M⁻¹ s⁻¹. B6 gave a Kd of 0.358 nM, a koff of 7.95e-05 s⁻¹ and a kon of 222000 M⁻¹ s⁻¹. Work on B7 yielded a Kd of 0.338 nM, a koff of 6.29e-05 s⁻¹ and a kon of about 186000 M⁻¹ s⁻¹. Binder B8 has a Kd of 0.0898 nM, a koff of 2.23e-05 s⁻¹ and a kon of 248000 M⁻¹ s⁻¹. B9 gave a Kd of 0.291 nM, a koff of 6.48e-05 s⁻¹ and a kon of 218000 M⁻¹ s⁻¹. Work on B10 yielded a Kd of 0.123 nM, a koff of 3.2e-05 s⁻¹ and a kon of 259000 M⁻¹ s⁻¹. Binder B11 has a Kd of 0.293 nM, a koff of 6.15e-05 s⁻¹ and a kon of 210000 M⁻¹ s⁻¹. Work on B12 yielded a Kd of 0.0989 nM, a koff of 2.85e-05 s⁻¹ and a kon of 288000 M⁻¹ s⁻¹.

These binders were tested against T3, human PD-1 on cells (assay: flow cytometry on CHO/hPD-1 cells, anti-mIgG-APC).
Experimental: CHO/hPD-1 cells were incubated anti-PD-1 mAbs on ice. After incubation, the cells were washed and further incubated with anti-mIgG-APC (eBiosciences). Flow cytometry analysis was performed using a FACSVerse (BD Biosciences). […] These cells were also stained with their respective positive antibodies respectively as positive control.
B13: binds.

What follows are binders tested against T2, Biotin-hPD-1 (assay: competitive ELISA: competitive Ab 15 µg/ml with Biotin-hPD-1; coating Ab TY101-01-09 1 µg/ml).
Experimental: as §2
In the case of B1, the “Inhibition (%)” value is reported as 94%. B2 was tested, and the “Inhibition (%)” value was 94%. In the case of B3, the “Inhibition (%)” value is reported as 94%.

Each binder was assayed against T4, Human PD-1 ECD protein (assay: SPR, Biacore T200, hPD-1 ECD immobilised at the low level (60 RU), antibody as analyte, 1:1 fit [lower left]).
Experimental: as §4
B2 gave a Kd of 0.132 nM, a koff of 1.89e-05 s⁻¹ and a kon of 143000 M⁻¹ s⁻¹.

These binders were tested against T2, Biotin-hPD-1 (assay: competitive ELISA: competitive Ab 15 µg/ml with Biotin-hPD-1; coating Ab Pembrolizumab 1 µg/ml).
Experimental: as §2
With B1 the “Inhibition (%)” value was 93%. With B2 the “Inhibition (%)” value was 94%. In the case of B3, the “Inhibition (%)” value is reported as 94%.

Each binder was assayed against T2, Biotin-hPD-1 (assay: competitive ELISA: competitive Ab 15 µg/ml with Biotin-hPD-1; coating Ab Nivolumab 1 µg/ml).
Experimental: as §2
With B1 the “Inhibition (%)” value was 93%. In the case of B2, the “Inhibition (%)” value is reported as 94%. For B3, the “Inhibition (%)” value was 94%.

These binders were tested against T2, Biotin-hPD-1 (assay: competitive ELISA: competitive Ab 15 µg/ml with Biotin-hPD-1; coating Ab TY101-04-T3-05 1 µg/ml).
Experimental: as §2
B1 was tested, and the “Inhibition (%)” value was 94%. With B2 the “Inhibition (%)” value was 95%. B3 was tested, and the “Inhibition (%)” value was 94%.

These binders were tested against T6, cynomolgus monkey PD-1 on cells (cynomolgus monkey, UniProt B0LAJ3 25-288) (assay: flow cytometry on CHOK1-cPD-1 cells).
T6 construct: also called cPD-1; CHOK1-cPD-1
T6 sequence (B0LAJ3 entry or part of it limits assumed): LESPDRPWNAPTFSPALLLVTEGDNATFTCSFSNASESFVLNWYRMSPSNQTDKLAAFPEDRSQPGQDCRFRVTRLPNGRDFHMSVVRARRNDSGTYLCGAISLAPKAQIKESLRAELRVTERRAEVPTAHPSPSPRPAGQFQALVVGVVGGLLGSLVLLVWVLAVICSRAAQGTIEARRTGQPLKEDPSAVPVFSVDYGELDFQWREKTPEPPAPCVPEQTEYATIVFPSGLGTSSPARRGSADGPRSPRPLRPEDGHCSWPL
With B1 the EC50 was 1.13 nM and the “Max MFI” value was 21100. For B2, the EC50 was 1.19 nM and the “Max MFI” value was 22100. In the case of B3, the EC50 is reported as 1.46 nM and the “Max MFI” value is reported as 20700.

Each binder was assayed against T3, human PD-1 on cells (assay: cell based RBA (flow cytometry): blocking of Biotin-hPD-L2 binding to CHOK1-hPD-1 cells).
Experimental: as §3
B1 showed an IC50 of 1.76 nM and an Inhibition rate of 95.4%. B2 showed an IC50 of 1.52 nM and an Inhibition rate of 95.3%. B3 was tested, and the IC50 was 2.33 nM and the Inhibition rate was 94.7%.

Each binder was assayed against T3, human PD-1 on cells (assay: flow cytometry on CHOK1-hPD-1 cells).
For B1, the EC50 was 0.78 nM and the “Max MFI” value was 23200. For B2, the EC50 was 0.87 nM and the “Max MFI” value was 23900. B3 was tested, and the EC50 was 0.94 nM and the “Max MFI” value was 23700.
